In assay [1] the target is human Claudin18.1 expressed on cells (human) (UniProt P56856). Nature of the assay: flow cytometry on 293FT-hClaudin18.1 cells, antibody 10 ug/mL, cells with antibody binding/total cells. On the technique in general: In flow cytometry, cells or beads pass a laser one at a time.
Assay [2] concerns the target human Claudin18.2 expressed on cells (human) (UniProt P56856). The assay can be described thus: flow cytometry on 293FT-hClaudin18.2 cells, antibody 10 ug/mL, cells with antibody binding/total cells.
Assay [3] concerns the target human Claudin18.1 expressed on cells (human) (UniProt P56856). Nature of the assay: flow cytometry on 293FT CLDN18.1-Luc cells, APC anti-mouse IgG Fc.

Positions count from the first letter of the chain named.

B1: 10-hIgG1Fc (Fc fusion, not shown: a dimerising Fc or GST)
chain: QVQLAESGGGLVQPGGSLRLSCAASGNILSINYMGWYRQAPGKERELVATITRGGTTNYQGDLKGRFIISGDNTKDTVYLQMNNLQPEDTAVYYCYFRINFGILGGLRDYWGQGTQVTVSS
On to B1, for which the binding percentage in assay [1] came to 2.06%; in assay [2], 96.1%.

B2: 2-mIgG2aFc (Fc fusion, not shown: a dimerising Fc or GST)
chain: B1 chain with Q1E, A5V, T56S, D62N
For B2, in assay [3], the EC50 (usually the concentration giving half of the maximal effect) was determined as 133 nM.

B3: 5-hIgG1Fc (Fc fusion, not shown: a dimerising Fc or GST)
chain: QVQLVESGGGLVQTGGSLRLSCAASDSTFSSYIMGWFRQAPGKEREFVAGITWSGGIKDYADSVKGRFTIARDNAKNTVYLQMNSLKPEDAAIYYCAANAIQLTRRSGDYAYWGQGTQVTVSS
For the molecule B3, the binding percentage came out at 2.06% in assay [1] and 96% in assay [2].

B4: 8-hIgG1Fc (Fc fusion, not shown: a dimerising Fc or GST)
chain: QVQLVESGGGLVQPGGSLRLSCAASGSIFGLNFMGWWRQAPGSQRELVAIATSGGSIQYGDSVKGRFTISRDNAKNTVYLQMASLKPEDTAVYYCNVHTYDFLGRDYWGQGTQVTVSL
As for B4, the binding percentage in assay [1] was determined as 2.26%; in assay [2] it was 93.9%.

B5: 1-hIgG1Fc (Fc fusion, not shown: a dimerising Fc or GST)
chain: EVQLVGSGGGLVQPGGSLRLSCAASGSILNLMTTGWYRQAPGKQRDLVATITFGGTTNYADSVKGRFTISRDKSKNTAYLQMDNLKPEDTAVYFCYADVIVGFQDRRVAWDAGTQVTVSS
B5: the binding percentage in assay [1] was found to be 2.75%; in assay [2] it was 88.9%.

These data come from EP4682169A1.
